Results reported in the supplement of paper PMC9170038.

Test system: MS2 coat protein
Experiment: apparent KD of MS2 coat protein; designed switch direction (-1 OFF switch, 1 ON switch): -1; higher = weaker reporter binding
In short: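 Designed RNA switches were transcribed on Illumina chips by stalled E. coli RNA polymerase and titrated with SNAP-549-labelled MS2 coat protein from 0.7 or 1.5 nM, doubling to 3 µM. Step length ran from 0.8–1.5 h at the lowest concentration to 10–20 min at the highest. The apparent KD is the median over clusters for each design, from curve-fitted normalised cluster fluorescence.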

[1] = input ligand: microRNA oligo, concentration not stated
[2] = Eterna round: R95, input ligand: microRNA oligo, concentration not stated
[3] = Eterna round: R95, input ligand: FMN 200 uM
[4] = Eterna round: R95, input ligand: none

| Sequence | apparent KD of MS2 coat protein (input ligand: FMN 200 uM) [nM] | apparent KD of MS2 coat protein [1] [nM] | apparent KD of MS2 coat protein (input ligand: none) [nM] | apparent KD of MS2 coat protein [2] [nM] | apparent KD of MS2 coat protein [3] [nM] | apparent KD of MS2 coat protein [4] [nM] |
| --- | --- | --- | --- | --- | --- | --- |
| AAGAGGAUUACAGGAUAUGAAGCUAAAACGGCGUUAGAAGGGUAUACAGAGUUACAUGAGGAUCACCCAUGUUGUGAUUUCUAA [AK ExNG1-V2-4.2] (Eterna round: R96, puzzle: Exclusion NG 1) | 48.4 | 38.4 | 49.2 |  |  |  |
| UGGGUUACAGGAUAUACAUGAGGAUCACCCAUGUCAUGUUUCGUGGCGGAUAGCUCGAGUAGAAGGGUGCAUCC [Diorus] (puzzle: Exclusion 3) |  |  |  | 36.6 |  |  |
| AAGAAACAUGAGGAUCACCCAUGUGAGGAUAUGAUGAAGAAAAGAAAAGAAAGAAGACUCAGAAGGCACAAAGG [salish99-ex1_r3_070] (puzzle: Exclusion 1) |  |  |  | 45.3 | 77.1 | 47.4 |
| AGAGAUGCCCAUGGCCGCAAGCUUUUUGCUUGUCUUACCACAUGAGGAUCACCCAUGUGACAUGGGCUCCUUAUAAU [Essoator] (puzzle: Sensor v3, turn-off variant 2) |  |  |  | 9.99 | 13.5 | 12.1 |
| UGCGAGUAAGGAUAUUCGCGACCACCCACAAGGGCGGUCGAGAAGAAGGUACUUGAGGAUCACCCAAGUCCUAA [Inraindi] (Eterna round: R97, puzzle: Exclusion 4) | 95.5 |  | 20.2 |  |  |  |
| ACUUUUUGAGGAUAUACAUUUAUCCACAUGAGGAUCACCCAUGUACAAACAUGUAUUUGUGUAGAAGGCAGAAGAA [JR_Ex5_Sub069] (Eterna round: R97, puzzle: Exclusion 5) | 54.5 |  | 60.7 |  |  |  |
| UAUUAGUAAGGAUAUCUCUGCAUGGACGAAAGUCCAUGCAGAGAGAAGGUACAUGAGGAUCACCCAUGUUCAUU [Mod of Fisker 17 - Jieux - Exclusion 4] (Eterna round: R97, puzzle: Exclusion 4) | 17.1 |  | 15 |  |  |  |
| GAAAAUUGAGGAUAUCCAAAAGGCCACAUGAGGAUCACCCAUGUGUAUCCUCGGCCCAAAGGAGAAGGCAAGAUAA [EX5 A.23] (Eterna round: R97, puzzle: Exclusion 5) | 974 |  | 5080 |  |  |  |
| GUGCUAUAGGAAGGAUAUACUUCAUUAUUUAGACAUGAGGAUCACCCAUGUAACCUUAUGUAUGUGUAGAAGGUCCAUAGCUUA (Eterna round: R96, puzzle: Exclusion NG 2) | 93.2 | 35.1 | 38.8 |  |  |  |
| GUGGAACAUGAGGAUCACCCAUGUGAGGAUAUGUGAGAAGGAUUUGAGAGGGAGAGGGACAGAAGGCACUAGGA [JR_Exclu1_Sub084] (puzzle: Exclusion 1) |  |  |  | 33.6 | 32.7 | 41.9 |
| CACCUGAAGAGAGGAUAUCAUACAUGAGGAUCACCCAUGUAAUAAAUGAGAAUUUCGAAUGUAAUUGAGAAGGCUCAAUAAGGC [Ostricism 95 - Jieux - Exclusion NG 2] (Eterna round: R96, puzzle: Exclusion NG 2) | 82.9 | 33 | 47.9 |  |  |  |
| GGUACUAUCACCUGAGUGGUAGUGCAACAAGCUUGUGAUACAUGAGGAUCACCCAUGUCCUCAUUUGCUCGUCUUAU [JL-sv3-2.25 JL mod] (puzzle: Sensor v3, turn-off variant 2) |  |  |  | 1070 | 209 | 217 |
| UUCCUACUUGAGGAUCACCCAAGUCAGGAUAUCCAUAACCGACACUCUUUUCGGAGCGGGAGAAGGGACUUGGC [Arbedi] (Eterna round: R97, puzzle: Exclusion 1) | 119 |  | 52.9 |  |  |  |
| GGUCGACAUGAGGAUCACCCAUGUUAGGAUAUUAGCCAAUGGUCUCGUUAUGAGUCAUUAAGAAGGAACAUGCU [Eternabot (L1) Solution 37] (Eterna round: R97, puzzle: Exclusion 1) | 18 |  | 14.9 |  |  |  |
| CUUUUGUGAGGAUAUUAGUAGUAAAUAAAUAAAAUUACUACUGAGAAGGUACAUGAGGAUCACCCAUGUUCCUC [salish99_ex4_r3_044] (puzzle: Exclusion 4) |  |  |  | 15.8 |  |  |
| ACAAGCUUUUUGCUCGGGUACAUGAGGAUCACCCAUGUUUGGGUUUAUUGAGGUUGUGUGGGCGUGCGCUGCAGGUU [JR_SV3TOV1_Sub075] (puzzle: Sensor v3, turn-off variant 1) |  |  |  | 243 | 87.7 | 118 |
| UACAUGAGGAUCACCCAUGUUUUGUCGUGUAUGGUAUUUAUCUAGGAUAUCAUUAUAUUUAGUUAUGAGAAGGAGAAUAUUAAU [JMF's solution 82] (Eterna round: R96, puzzle: Exclusion NG 3) | 28.1 | 23.6 | 44.6 |  |  |  |
| UAAUUUAGUGUGAGGAUAUGCUGGUCGAUAGAUCAGCAGAAGGCACAUGAGGAUCACCCAUGUAAUAUAUUAAA [Mat - Exclusion 4 - JL Mod - D35] (puzzle: Brourd's mod of Exclusion 4) |  |  |  | 62.4 | 218 | 60.2 |
| AAUAACAGAGGAUAUACUAUUUUAUGUGUUUAUUGUUUUAAACAUGAGGAUCACCCAUGUAGAAGGCUGAUUGA [JMF 73] (puzzle: Exclusion 2) |  |  |  | 65.5 |  |  |
| CGGGACGUCCUGAUAAUAAGACAUGAGGAUCACCCAUGUCGGCAGGAUAUCAGUCCUUACGGUUAUGAGAAGGGUCGGCAACCA [Quatis] (Eterna round: R96, puzzle: Exclusion NG 3) | 10.9 | 9.05 | 11.6 |  |  |  |
| UACAUGAGGAUCACCCAUGUUUUGUCGUGUAUGGUAUUUAUCUAGGAUAUCAAUUUAGUAAUUUAUGAGAAGGAGAAUAUUAAU [JMF's solution 73] (Eterna round: R96, puzzle: Exclusion NG 3) | 37.5 | 31.4 | 40.8 |  |  |  |
| AAAUCUCACGUGAGGAUAUCCUGGGCAACGUCCACGGAGAAGGCACAUGAGGAUCACCCAUGUGUUCGCAAUAC [Brourd's mod of Exclusion 4 (MOD2 of Nando's BmEX4 C.1)] (Eterna round: R97, puzzle: Brourd's mod of Exclusion 4) | 22.3 |  | 17.9 |  |  |  |
| AACAGUACAGGAUAUACAUGAGGAUCACCCAUGUGAAGAAUAAGUGGAGUACCACAAAGUAGAAGGGUACUGGA [Ruby 88] (Eterna round: R96, puzzle: Exclusion 3) |  | 21.5 |  |  |  |  |
| UUGUUCCAUGUAGGAUAUGCAUAUUCUCAUUAUGCAGAAGGACAUGAGGAUCACCCAUGUAUGUUAUUAUUAUAUGUUACAUGU [Design 2] (Eterna round: R96, puzzle: Exclusion NG 1) | 613 | 54.6 | 78.5 |  |  |  |
| GUCCUGUGGCAGGAUAUGAAAACGUAGCAACGGUCAGAAGGGCCAACAUGAGGAUCACCCAUGUACCCGUAUGG [Eternabot (L1) Solution 62] (Eterna round: R97, puzzle: Exclusion 6) | 24.3 |  | 19.9 |  |  |  |
